The values that follow come from the RNAGym collection of RNA variant scans (doi:10.7554/elife.80360).

First the molecules themselves.
B1: HDV Ribozyme (parent)
chain: GGCCGGCAUGGUCCCAGCCUCCUCGCUGGCGCCGGCUGGGCAACAUUCCGAGGGGACCGUCCCCUCGGUAAUGGCGAAUGGGACCCA

The variants in the data set derive from B1. The data set can be described thus: self-cleavage, relative activity (ratio to wild type); higher = more cleavage; co-transcriptional.
Consider C33U C57G, for which the self-cleavage worked out at 1.04.
As to U20A C22U, the self-cleavage turned out to be 0.
The result for C22G C36U reads 0.108; that for G29A U79A, 0.166; that for G29A U79C, 0.113.
The result for G1C G38A reads 0; that for U12C C36G, 0.128; that for G10A U65G, 0.767.
The figure for C13G C33G is 0.0462; for G55C C64A it is 0.855; for G17A A78U it is 0.242.
In the case of C4A C66G, the self-cleavage stood at 0.289.
G38C C49G: the self-cleavage is 0.156.
As to C3G G50C, the self-cleavage came out at 0.475.
The figure for C21G A70U is 0.111; for U9A G35U it is 0.264; for G52A C57U it is 1.06.
The result for U20C A78U reads 0.111; that for C32G C86U, 0.203.
Turning to U20A C62U, the self-cleavage was 0.0475.
Regarding G5A C18G, the self-cleavage came to 0.
The result for G2U U20C reads 0.
The figure for G29C C61A is 0.0791; for G28U A51C it is 0.222.
The figure for C66A C85G is 0.918; for G38C G39C it is 0.0426; for G17U G81C it is 0.197.
Consider A16G C84U, for which the self-cleavage amounted to 0.525.
The result for A8U G39C reads 0.166.
The figure for G28A G68C is 0.0692; for G11C C61U it is 0.157.
Turning to G10C U47C, the self-cleavage came to 0.332.
The figure for C15U C85U is 0.906; for C14G G68U it is 0.277.
The result for C19G G68C reads 0.0875; that for C66G A87U, 0.853.
The result for A56G G74U reads 0.564.
Consider C18G A87U, for which the self-cleavage was 0.154.
On to A16U C18A, for which the self-cleavage was 0.107.
The figure for C21A C49U is 0.0272; for C13U U65C it is 0.604; for C15U G55A it is 0.889.
As for C41A C64G, the self-cleavage was 0.884.
The result for G6C C14A reads 0; that for C14A U37C, 0.504; that for G31A A77C, 0.199.
The figure for C30G G38A is 0.14; for C4G C7U it is 0.0234; for C18U C75A it is 0.366.
Take U9G G39A: the self-cleavage stood at 0.475.
The result for G67A U72A reads 0.532.
The figure for C30U A71C is 0.404; for G31U G35C it is 0.141; for G74U C85U it is 0.614.
The figure for C24U G34U is 0.17.
As for A70G G74U, the self-cleavage was found to be 0.65.
The figure for C15A G67C is 0.782; for G2C U69G it is 0.157; for C4A C22G it is 0.102.
The figure for G54U C85A is 0.964; for U9G it is 1.02; for G50A C84G it is 0.853.
The result for G40C G74C reads 0.0652; that for A8U C57A, 1.05; that for C3G U69G, 0.658.
Turning to G10A U46G, the self-cleavage turned out to be 0.536.
For the variant G67A A87U, the self-cleavage was determined as 1.06.
The figure for G39U A87G is 0.661; for C22U C75G it is 0.208.
The result for G35U C86U reads 0.464; that for G25U U69C, 0.229.
The figure for U72C C84G is 0.369.
For G34C C61U, the self-cleavage is 0.154.
The figure for U9A A77G is 0.751; for C22G U37A it is 0.0845; for A16U C64U it is 0.866.
The figure for G40C U65G is 0.237; for C75A A77G it is 0.0875.
With A8C C36U, the self-cleavage was determined as 0.712.
Consider C22U G28C, for which the self-cleavage is 0.
The result for C15A G35C reads 0.138.
With G39A G59C, the self-cleavage is 0.546.
U37A A43G: the self-cleavage was 0.0554.
The result for C41U A45G reads 0.575.
The result for U20C G50A reads 0.306; that for G39C G59C, 0.162.
The result for G50C C58U reads 1.04; that for C14U U23A, 1.04.
In the case of C13A G28U, the self-cleavage worked out at 0.172.
The result for A56G G82C reads 0.193; that for G68C U72A, 0.499; that for C61U G82A, 0.325.
The result for U23C G34A reads 0.0898; that for G55U A70G, 0.867; that for C32A G68U, 0.0906.
The result for C58U G68A reads 0.855.
Turning to G2C C4A, the self-cleavage stood at 0.0282.
Turning to C49G U60G, the self-cleavage amounted to 0.762.
In the case of C3U A51U, the self-cleavage turned out to be 0.992.
As to U69C G80C, the self-cleavage was 0.0396.
The figure for U65A G67A is 0.98; for G53C G76U it is 0.967; for C26G A87C it is 1.02.
The result for C13A A77C reads 0.0462; that for C24A G38U, 0.0791; that for C21G C61U, 0.032.
The result for G53A G67C reads 1.04.
On to C7A G38C, for which the self-cleavage amounted to 0.106.
The figure for G59U A71U is 0.862; for A8G C75A it is 0.0692.
The result for U12G A42G reads 0.369; that for G82C C86U, 0.285; that for G10A U69C, 0.997.
For the variant G11C C21G, the self-cleavage amounted to 0.
The result for C21G C26A reads 0.
The result for A8G C61A reads 0.886; that for G34C, 0.195; that for U69C A78U, 0.375.
The figure for C24A G59C is 0.8; for C36G G74C it is 0.0723.
Turning to G55A U65A, the self-cleavage came to 1.06.
With C36U A71U, the self-cleavage was 0.471.
The figure for C3U C13G is 0.179; for C30A A43U it is 0.0692.
The figure for C21A G25U is 0.113.
The figure for G2U C3A is 0.0484; for A56C G81C it is 0.266.
As to C7U A87U, the self-cleavage turned out to be 0.938.
The figure for C22G U47G is 0.0791; for C18U G39C it is 0.0405; for U20C C49A it is 0.172.
The result for U37C G76U reads 1.3; that for A8G U72G, 0.536; that for G40A G52U, 0.683.
The figure for G5A C21U is 0.163; for A43U A56G it is 0.665.
With C33G G39A, the self-cleavage was determined as 0.0997.
The result for U27A A87G reads 0.847.
The result for C19G G81U reads 0.0997; that for G6U C19G, 0.0692; that for G10U G25A, 0.114.
The result for C61U C63U reads 0.958; that for U60G A71G, 0.831.
On to A16C C58A, for which the self-cleavage was 0.582.
The result for G25U C85G reads 0.0755; that for A42G A77C, 0.0723; that for G25C G52A, 0.17.
G11A A51C: the self-cleavage stood at 0.665.
For the variant C48A G68A, the self-cleavage was 1.06.
Take C18U C86G: the self-cleavage was determined as 0.704.
The result for C4A C48A reads 0.225; that for U12C G28C, 0; that for C36G C41A, 0.248.
The result for A8C A71G reads 0.772; that for G29A C86A, 0.155.
The result for C48U G81U reads 0.327; that for A42U C63A, 0.325; that for U46G C49A, 0.391.
For the variant G25C U27C, the self-cleavage worked out at 0.128.
The result for G34A A87C reads 0.126; that for G10U G29U, 0.0475; that for C33A C48U, 0.163.
The result for G25C G28C reads 0.
For the variant G40A G74C, the self-cleavage was found to be 0.485.
As to U23A A71C, the self-cleavage was 0.712.
The figure for G1A G53C is 0.
The figure for C30U A87U is 0.636.
